Several values for one entry are separate records, joined by “and”; a condition that tells them apart may be missing. Equal values may be shown once. Values belong to the molecule of their own block, whether it stands above or below them.
What was measured:
[1] = target: tES–F116H(+) (Archaeoglobus fulgidus); experiment: AUC; sedimentation of tES–F116H/POI samples (1 µM) in PBS, 20 °C, absorbance at 280 nm; POI loaded into tES by pH shift 5.8 to 8.0 and dialysis
[2] = target: tES–F116H(+/–) (Archaeoglobus fulgidus); experiment: AUC
[3] = target: tES–F116H(+) (Archaeoglobus fulgidus); experiment: AUC
[4] = target: tES–F116H(–) (Archaeoglobus fulgidus); experiment: AUC
AUC = target: the molecule itself; experiment: AUC
[5] = target: tES–F116H(+) (Archaeoglobus fulgidus); experiment: AUC; remark: listed apart in the source

stoichiometry N (rLuc per tES shell) [1]: 2 and 1
Molecule: Renilla luciferin 2-monooxygenase (from UniProt P27652 1-311) (enzyme)

stoichiometry N (p53 per tES shell) [2]: 1
stoichiometry N (p53 per tES shell) [3]: 1
Molecule: Tumor protein 53, stabilized clone (from UniProt P04637 1-393) (natural protein)

Molecule: rFasxiator (natural protein)
stoichiometry N (rFasxiator per tES shell) [4]: 3

stoichiometry N (sAP per tES shell) [5]: 1
B1: Shrimp alkaline phosphatase (enzyme, UniProt Q9BHT8 1-475, looked up)
chain: KAYWNKDAQDALDKQLGIKLREKQAKNVIFFLGDGMSLSTVTAARIYKGGLTGKFEREKISWEEFDFAALSKTYNTDKQVTDSAASATAYLTGVKTNQGVIGLDANTVRTNCSYQLDESLFTYSIAHWFQEAGRSTGVVTSTRVTHATPAGTYAHVADRDWENDSDVVHDREDPEICDDIAEQLVFREPGKNFKVIMGGGRRGFFPEEALDIEDGIPGEREDGKHLITDWLDDKASQGATASYVWNRDDLLAVDIRNTDYLMGLFSYTHLDTVLTRDAEMDPTLPEMTKVAIEMLTKDENGFFLLVEGGRIDHMHHANQIRQSLAETLDMEEAVSMALSMTDPEETIILVTADHGHTLTITGYADRNTDILDFAGISDLDDRRYTILDYGSGPGYHITEDGKRYEPTEEDLKDINFRYASAAPKHSVTHDGTDVGIWVNGPFAHLFTGVYEENYIPHALAYAACVGTGRTFCDEK
notes: also called sAP; AP
stoichiometry N (AUC): 2

Source: article PMC8481291 (Nature Communications, 2021)
